In patent US20090175866A1, “TREATMENT OF B-CELL MALIGNANCIES” (priority 2004, published 2009):

What was measured:
WT FGFR3 = target: T1, WT FGFR3 (Homo sapiens, UniProt P22607); assay: Flow cytometry binding of PRO-001 Fab to B9-FGFR3^WT cells, with or without FGF
T1 construct: expressed in transfected cells; host or cells: B9 cells
Excerpt: FIG. 1A is a flow cytometry chart showing B9-FGFR WT (wild type) cells fluorescently labeled with PRO 001 followed by a PE-conjugated anti-human secondary antibody. The filled histogram indicates parental B9 cells (lacking FGFR3 expression); the dotted light line, B9-FGFR WT without aFGF; the solid dark line, B9-WT in the presence of aFGF. The Y axis represents counts indicating the amount of cells. The X axis represents fluorescence intensity.
Cells (5×10^5) were washed in cold phosphate-buffered saline (PBS) and then incubated for 30 minutes with one of the following: PRO-001 Fab or a human Fab control antibody, rabbit anti-FGFR3 (100) or rabbit preimmune serum in PBS. The cells were then stained with PE-conjugated goat antihuman F(ab′)2 secondary antibody or goat anti-rabbit IgG-PE for 30 minutes on ice. Flow cytometry was performed on a FACSCaliber flow cytometer (BD Biosciences, San Jose, Calif.) and analyzed using Cellquest software (Becton Dickinson). To assess the ability of FGF ligand to compete for binding, cells were incubated in the presence or absence of 30 ng/ml FGF and 5 μg/ml heparin for 30 minutes and then stained with PRO-001 Fab as describe above.
The human anti-FGFR3 Fab PRO-001 was isolated from the Hu-CAL®-Fab-1 human combinatorial library using a differential whole cell panning approach (Rauchenberger R, et al. J Biol. Chem. 2003; 278:38194-205). […]

FGFR2 = target: T2, FGFR2 (Homo sapiens, UniProt P21802); assay: FGF-stimulated proliferation of FDCP-FGFR2 cells (XTT); format: cell-based; conditions: up to 10 fold higher concentrations than the FDCP-FGFR3 IC50
T2 construct: was transfected with full length FGFR1 (FDCP-FGFR1), FGFR2 (FDCP-FGFR2), FGFR3 (FDCP-FGFR3); expressed in transfected cells; host or cells: FDCP-1 mouse myeloid progenitor cell line
Excerpt: FIG. 1D is a graph showing proliferation of FGFR expressing FDCP cells in the presence of increasing concentrations of PRO-001 as determined by XTT analysis. Data are the average of duplicate cultures. The X axis represents concentration of PRO-001 Fab. The Y axis represents % inhibition.
Non-transformed rat chondrocyte cell line expressing PGFR3 in an inducible manner (RCJ-FGFR3) has been described previously (Rauchenberger R. et al. J. Biol. Chem. 2003; 278:38194-205). […]
Cell viability was assessed by 3-(4,5-dimethylthiazol)-2,5-diphenyl tetrazolium (MTT) or (2,3-bis(2-methoxy-4-nitro-5-sulphophenyl)-5-[(phenylamino) carbonyl]-2H-tetrazolium hydroxide (XTT) dye absorbance where indicated. Cells were seeded in 96-well plates at a density of 20,000 (FDCP-1 cells), 5,000 (B9 cells) or 25,000 cells (MM cell lines) per well in culture medium. Cells were incubated in the absence or presence of one of the following cytokines: 10 ng/ml FGF9 and 5 μg/ml heparin, 1% murine IL-6, 50 ng/ml IGF-1 or 50 ng/ml human IL-6 where indicated and increasing concentrations of PRO-001, control antibody (purified human Fab) or 100 nM PD173074. […]

T1 sequence (P22607 23-806): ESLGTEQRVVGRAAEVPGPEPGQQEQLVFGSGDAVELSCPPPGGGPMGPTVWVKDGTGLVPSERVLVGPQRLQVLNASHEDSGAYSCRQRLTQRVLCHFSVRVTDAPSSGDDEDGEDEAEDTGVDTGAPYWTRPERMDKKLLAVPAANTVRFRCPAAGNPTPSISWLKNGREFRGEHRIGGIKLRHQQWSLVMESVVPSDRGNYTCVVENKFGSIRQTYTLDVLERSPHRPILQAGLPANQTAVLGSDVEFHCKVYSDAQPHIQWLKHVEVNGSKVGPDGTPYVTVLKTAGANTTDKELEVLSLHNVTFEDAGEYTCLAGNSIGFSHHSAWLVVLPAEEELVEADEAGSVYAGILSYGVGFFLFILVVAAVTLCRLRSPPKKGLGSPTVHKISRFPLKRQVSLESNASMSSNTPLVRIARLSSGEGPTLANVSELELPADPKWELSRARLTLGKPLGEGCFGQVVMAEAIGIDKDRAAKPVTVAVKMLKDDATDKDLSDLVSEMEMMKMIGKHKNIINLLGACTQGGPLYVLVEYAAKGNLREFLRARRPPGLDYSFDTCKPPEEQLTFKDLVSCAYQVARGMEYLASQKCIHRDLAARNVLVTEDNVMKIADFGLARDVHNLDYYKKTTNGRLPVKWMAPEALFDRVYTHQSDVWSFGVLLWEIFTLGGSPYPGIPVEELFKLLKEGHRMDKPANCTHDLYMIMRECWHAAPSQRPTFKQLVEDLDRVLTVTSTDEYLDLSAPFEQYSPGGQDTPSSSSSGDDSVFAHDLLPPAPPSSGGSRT
T2 sequence (P21802 22-821, species assumed): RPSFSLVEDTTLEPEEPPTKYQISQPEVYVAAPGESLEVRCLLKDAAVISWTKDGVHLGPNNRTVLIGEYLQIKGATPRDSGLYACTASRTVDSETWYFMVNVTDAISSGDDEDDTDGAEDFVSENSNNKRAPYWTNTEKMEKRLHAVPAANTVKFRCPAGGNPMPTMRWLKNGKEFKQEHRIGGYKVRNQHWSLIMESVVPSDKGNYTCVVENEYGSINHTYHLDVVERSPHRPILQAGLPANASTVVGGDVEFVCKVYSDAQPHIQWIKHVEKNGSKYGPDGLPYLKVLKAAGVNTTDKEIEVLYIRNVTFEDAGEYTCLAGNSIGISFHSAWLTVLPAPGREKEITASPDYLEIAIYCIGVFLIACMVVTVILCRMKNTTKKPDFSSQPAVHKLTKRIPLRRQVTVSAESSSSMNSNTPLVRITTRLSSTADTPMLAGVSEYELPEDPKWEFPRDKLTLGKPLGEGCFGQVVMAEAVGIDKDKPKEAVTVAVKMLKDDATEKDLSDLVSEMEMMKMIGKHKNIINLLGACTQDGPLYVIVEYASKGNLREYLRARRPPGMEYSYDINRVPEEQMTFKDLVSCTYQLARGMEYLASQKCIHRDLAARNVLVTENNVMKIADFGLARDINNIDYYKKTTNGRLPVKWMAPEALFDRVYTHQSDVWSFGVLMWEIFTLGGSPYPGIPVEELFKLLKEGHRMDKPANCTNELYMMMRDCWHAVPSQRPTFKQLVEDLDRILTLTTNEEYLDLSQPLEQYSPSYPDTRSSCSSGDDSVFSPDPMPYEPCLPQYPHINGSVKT

B1: PRO-001: human anti-FGFR3 Fab from HuCAL library; VH-CDR3 SEQ ID NO:1, VL-CDR3 SEQ ID NO:10; VH SEQ ID NO:19, VL SEQ ID NO:28 (antibody, V domains shown)
VH: QVQLQQSGPGLVKPSQTLSLTCAISGDSVSSNSAAWNWIRQSPGRGLEWLGRTYYRSKWYNDYAVSVKSRITINPDTSKNQFSLQLNSVTPEDTAVYYCARSYYPDFDYWGQGTLVTVSS
VL: DIELTQPPSVSVAPGQTARISCSGDALGDKYASWYQQKPGQAPVLVIYDDSDRPSGIPERFSGSNSGNTATLTISGTQAEDEADYYCQSYDGPDLWVFGGGTKLTVLGQ
WT FGFR3; 30 ng/ml FGF and 5 μg/ml heparin
  Binding to B9-FGFR3^WT cells on addition of FGF: can be reduced by addition of FGF
WT FGFR3; PRO-001 Fab, B9-FGFR3^WT cells
  Binding to WT FGFR3 (FACS): binds to WT FGFR3
FGFR2
  Proliferation of FDCP-1 cells expressing FGFR2: unaffected
